According to patent US20150010591A1 (UNIVERSITY OF BRITISH COLUMBIA, published 2015):

Assays:
Experiment in all cases: peptide eluted from immunoaffinity-purified MHC class II of infected C57BL/6 BM-DCs, LC-MS/MS
[1] = target: T1, …, peptide of C. trachomatis Hypothetical protein CT289 (Chlamydia trachomatis)
T1 construct: also called CT289 peptide

[2] = target: T2, IPFAKPDANLSAED, peptide of C. trachomatis Hypothetical protein CT619 (Chlamydia trachomatis)
T2 construct: also called CT619 peptide

[3] = target: T3, …, peptide of C. trachomatis Hypothetical protein CT837 (Chlamydia trachomatis)
T3 construct: also called CT837 peptide

[4] = target: T4, …, peptide of C. trachomatis Muramidase (invasin repeat family) (CT759) (Chlamydia trachomatis)
T4 construct: also called NlpD peptide

[5] = target: T5, […], peptide of C. trachomatis Predicted D-Amino Acid Dehydrogenase (CT375) (Chlamydia trachomatis)
T5 construct: also called CT375 peptide

[6] = target: T6, …, peptide of C. trachomatis CHLPN 76kDa Homolog (CT622) (Chlamydia trachomatis)
T6 construct: also called CT622 peptide

[7] = target: T7, …, peptide of C. trachomatis Sigma Regulatory factor (CT424) (Chlamydia trachomatis)
T7 construct: also called RsbV peptide

[8] = target: T8, …, peptide of C. trachomatis Hypothetical protein CT472 (Chlamydia trachomatis)
T8 construct: also called CT472 peptide

[9] = target: T9, …, peptide of C. trachomatis FHA domain; homology to adenylate cyclase (CT664) (Chlamydia trachomatis)
T9 construct: also called CT664 peptide

[10] = target: T10, …, peptide of C. trachomatis Hypothetical protein CT144 (Chlamydia trachomatis)
T10 construct: also called CT144 peptide

[11] = target: T11, …, peptide of C. trachomatis Dihydrolipoamide acetyltransferase (CT247) (Chlamydia trachomatis)
T11 construct: also called PdhC peptide

[12] = target: T12, …, peptide of C. trachomatis Hypothetical protein CT143 (Chlamydia trachomatis)
T12 construct: also called CT143 peptide

Measured: binding result

B1: MHC class II (I-Ab) molecules of bone marrow derived dendritic cells from C57BL/6 mice (receptor)
MHC II alpha: EDDIEADHVGTYGISVYQSPGDIGQYTFEFDGDELFYVDLDKKETVWMLPEFGQLASFDPQGGLQNIAVVKHNLGVLTKRSNSTPATNEAPQATVFPKSPVLLGQPNTLICFVDNIFPPVINITWLRNSKSVADGVYETSFFVNRDYSFHKLSYLTFIPSDDDIYDCKVEHWGLEEPVLKHWEPEIPAPMSELTETVVCALGLSVGLVGIVVGTIFIIQGLRSGGTSRHPGPL
MHC II beta: GDSERHFVYQFMGECYFTNGTQRIRYVTRYIYNREEYVRYDSDVGEHRAVTELGRPDAEYWNSQPEILERTRAELDTVCRHNYEGPETHTSLRRLEQPNVVISLSRTEALNHHNTLVCSVTDFYPAKIKVRWFRNGQEETVGVSSTQLIRNGDWTFQVLVMLEMTPRRGEVYTCHVEHPSLKSPITVEWRAQSESAWSKMLSGIGGCVLGVIFLGLGLFIRHRSQKGPRGPPPAGLLQ
notes: whole, on cells; also called MHC class II molecules
binds: all assays above
